From patent US20210395344A1 (TWIST BIOSCIENCE, published 2021)
Numbering of substitutions follows the chain as printed.

B1: SARS-CoV-2 variant 1-38 (antibody, V domains shown)
VH: EVQLLESGGGLVQPGGSLRLSCAASGITFSSYAMSWVRQAPGKGLEWVSGISGSGGSTYYADSVKGRFTISRDNSKNTLYLQMNSLRAEDTAVYYCAKHGSGTIFGVVIAKYYFDYWGQGTLVTVSS
VL: QSALTQPASVSGSPGQSITISCTGTSSDIGSYNLVSWYQQHPGKAPKLMIYEGTKRPSGVSNRFSGSKSGNTASLTISGLQAEDEADYYCCSYAGSRTYVFGGGTKLTVL
B2: SARS-CoV-2 variant 1-37 (antibody, V domains shown)
VH: EVQLLESGGGLVQPGGSLRLSCAASGFTFTSYAMNWVRQAPGKGLEWVTAISGSGGSTFYADSVKGRFTISRDNSKNTLYLQMNSLRAEDTAVYYCTRPPYGDYGDYWGQGTLVTVSS
VL: B1 VL
B3: SARS-CoV-2 variant 1-23 (antibody, V domains shown)
VH: EVQLLESGGGLVQPGGSLRLSCAASGFTFSSYAISWVRQAPGKGLEWVSIISGSGGSTYYADSVKGRFTISRDNSKNTLYLQMNSLRAEDTAVYYCAREGYRDYLWYFDLWGQGTLVTVSS
VL: QSALTQPASVSGSPGQSITISCTGTSNDVGSYNLVSWYQQHPGKAPKLMIYEGNKRPSGVSNRFSGSKSGNTASLTISGLQAEDEADYYCCSYAGSYTVFGGGTKLTVL
B4: SARS-CoV-2 variant 1-26 (antibody, V domains shown)
VH: EVQLLESGGGLVQPGGSLRLSCAASGFTFSSYAISWVRQAPGKGLEWVSAISGSGYSTYYADSVKGRFTISRDNSKNTLYLQMNSLRAEDTAVYYCARGAPDSSGYYFQGEVYFDYWGQGTLVTVSS
VL: QSALTQPASVSGSPGQSITISCTGTSSDVGGYNLVSWYQQHPGKAPKLMIYEGTKRPSGVSNRFSGSKSGNTASLTISGLQAEDEADYYCCSFVRSSAHVVFGGGTKLTVL
B5: SARS-CoV-2 variant 2-15 (antibody, V domains shown)
VH: EVQLLESGGGLVQPGGSLRLSCAASGFTFSDFAMAWVRQAPGKGLEWVSAISGSGDITYYADSVKGRFTISRDNSKNTLYLQMNSLRAEDTAVYYCAREADGLHSPWHFDLWGQGTLVTVSS
VL: DIQMTQSPSSLSASVGDRVTITCRASQSIDNYLNWYQQKPGKAPKLLIYGVSALQSGVPSRFSGSGSGTDFTLTISSLQPEDFATYYCQQSHSAPLTFGQGTKVEIK
B6: SARS-CoV-2 variant 1-17 (antibody, V domains shown)
VH: EVQLLESGGGLVQPGGSLRLSCAASGFTFSSYAMYWVRQAPGKGLEWVSAISGSAGSTYYADSVKGRFTISRDNSKNTLYLQMNSLRAEDTAVYYCARDTNDFWSGYSIFDPWGQGTLVTVSS
VL: B1 VL
B7: SARS-CoV-2 variant 1-42 (antibody, V domains shown)
VH: B1 VH with I27V, G50A, S52T
VL: B1 VL with I29V, S31R, T54G, G95S, R97S, Y99L
B8: SARS-CoV-2 variant 1-21 (antibody, V domains shown)
VH: B3 VH with A33T, I34M
VL: QSALTQPASVSGSPGQSITISCTGTSSDVGSNNLVSWYQQHPGKAPKLMIYEGNKRPSGVSNRFSGSKSGNTASLTISGLQAEDEADYYCCSYAGSVVFGGGTKLTVL
B9: SARS-CoV-2 variant 1-9 (antibody, V domains shown)
VH: EVQLLESGGGLVQPGGSLRLSCAASGFTFSSYDMSWVRQAPGKGLEWVSVISGSGGSTYYADSVKGRFTISRDNSKNTLYLQMNSLRAEDTAVYYCAKGPLVGWYFDLWGQGTLVTVSS
VL: B4 VL with G31D, T54S, K55N, F93Y, V94A, R95G, A98S, H99F
B10: SARS-CoV-2 variant 1-47 (antibody, V domains shown)
VH: EVQLLESGGGLVQPGGSLRLSCAASGFTFSSQAMSWVRQAPGKGLEWVSAISGSGGGTYYADSVKGRFTISRDNSKNTLYLQMNSLRAEDTAVYYCAKDRRFGEFDPWGQGTLVTVSS
VL: B4 VL with D28G, G31S, T54I, F93Y, V94A, R95G, A98S, H99F
B11: SARS-CoV-2 variant 1-8 (antibody, V domains shown)
VH: B9 VH
VL: B1 VL with S27N, I29V, T54S, T98Y, Y99V

These binders were tested against S1-Fc (SARS-CoV-2, UniProt P0DTC2 16-685) (assay: phage ELISA).

Question: What does the source list for B1?
Answer: specificity ELISA, fold over background: 0.9 fold over background; specificity ELISA, percent binding relative to Acro S1: 82.8%

Question: How did the “specificity ELISA, fold over background” value turn out when B2 was run?
Answer: 5.4 fold over background

Question: What about the “specificity ELISA, percent binding relative to Acro S1” value of the same binder?
Answer: 46.7%

Question: What does the source list for B3?
Answer: specificity ELISA, fold over background: 1.6 fold over background; specificity ELISA, percent binding relative to Acro S1: 31.1%

Question: What does the source list for B4?
Answer: specificity ELISA, fold over background: 1.3 fold over background; specificity ELISA, percent binding relative to Acro S1: 98%

These binders were tested against COVID S1 RBM Fc fusion (Antigen 2) (SARS-CoV-2, UniProt P0DTC2 437-508) (assay: phage ELISA).

Question: With B5 as the binder, how does the “specificity ELISA, fold over background” value read?
Answer: 0.9 fold over background

Question: What about the “specificity ELISA, percent binding relative to Acro S1” value of the same binder?
Answer: 3%

These binders were tested against T1, COVID S1 RBM Fc fusion (Antigen 2) (SARS-CoV-2, UniProt P0DTC2 437-508) (assay: phage ELISA).
T1 construct: domain: RBM

Question: With B1 as the binder, how does the “specificity ELISA, fold over background” value read?
Answer: 1.2 fold over background

Question: And the “specificity ELISA, percent binding relative to Acro S1” value?
Answer: 101%

Question: What does the source list for B2?
Answer: specificity ELISA, fold over background: 1.4 fold over background; specificity ELISA, percent binding relative to Acro S1: 12.3%

Question: How did the “specificity ELISA, fold over background” value turn out when B6 was run?
Answer: 1.3 fold over background

Question: And the “specificity ELISA, percent binding relative to Acro S1” value?
Answer: 5.2%

Question: Which “specificity ELISA, fold over background” value does the source give for B7 here?
Answer: 1 fold over background

Question: What about the “specificity ELISA, percent binding relative to Acro S1” value of the same binder?
Answer: 4.2%

Question: With B3 as the binder, how does the “specificity ELISA, fold over background” value read?
Answer: 1.6 fold over background

Question: And the “specificity ELISA, percent binding relative to Acro S1” value?
Answer: 32%

Question: What does the source list for B8?
Answer: specificity ELISA, fold over background: 1.4 fold over background; specificity ELISA, percent binding relative to Acro S1: 7%

Question: With B9 as the binder, how does the “specificity ELISA, fold over background” value read?
Answer: 1 fold over background

Question: What about the “specificity ELISA, percent binding relative to Acro S1” value of the same binder?
Answer: 9.3%

Question: Which “specificity ELISA, fold over background” value does the source give for B10 here?
Answer: 0.9 fold over background

Question: What about the “specificity ELISA, percent binding relative to Acro S1” value of the same binder?
Answer: 11.1%

Question: Which results are given for B4?
Answer: specificity ELISA, fold over background: 1 fold over background; specificity ELISA, percent binding relative to Acro S1: 74.7%

Question: For B11, which “specificity ELISA, fold over background” value is on record?
Answer: 1.2 fold over background

Question: What about the “specificity ELISA, percent binding relative to Acro S1” value of the same binder?
Answer: 10.3%

These binders were tested against COVID S1 RBD Fc fusion (Antigen 1) (SARS-CoV-2, UniProt P0DTC2 319-541) (assay: phage ELISA).

Question: With B5 as the binder, how does the “specificity ELISA, fold over background” value read?
Answer: 28.1 fold over background

Question: What about the “specificity ELISA, percent binding relative to Acro S1” value of the same binder?
Answer: 90.6%

These binders were tested against T2, COVID S1 RBD Fc fusion (Antigen 1) (SARS-CoV-2, UniProt P0DTC2 319-541) (assay: phage ELISA).
T2 construct: domain: RBD

Question: With B1 as the binder, how does the “specificity ELISA, fold over background” value read?
Answer: 1.5 fold over background

Question: What about the “specificity ELISA, percent binding relative to Acro S1” value of the same binder?
Answer: 128%

Question: Which results are given for B2?
Answer: specificity ELISA, fold over background: 2 fold over background; specificity ELISA, percent binding relative to Acro S1: 17.7%

Question: Which “specificity ELISA, fold over background” value does the source give for B6 here?
Answer: 20.1 fold over background

Question: What about the “specificity ELISA, percent binding relative to Acro S1” value of the same binder?
Answer: 79.8%

Question: What does the source list for B7?
Answer: specificity ELISA, fold over background: 20.8 fold over background; specificity ELISA, percent binding relative to Acro S1: 91.4%

Question: What does the source list for B3?
Answer: specificity ELISA, fold over background: 3.6 fold over background; specificity ELISA, percent binding relative to Acro S1: 70.9%

Question: Which “specificity ELISA, fold over background” value does the source give for B8 here?
Answer: 14.8 fold over background

Question: And the “specificity ELISA, percent binding relative to Acro S1” value?
Answer: 75.7%

Question: Which results are given for B9?
Answer: specificity ELISA, fold over background: 9.8 fold over background; specificity ELISA, percent binding relative to Acro S1: 91.1%

Question: B10 was tested. Which “specificity ELISA, fold over background” value did it give?
Answer: 5.5 fold over background

Question: And the “specificity ELISA, percent binding relative to Acro S1” value?
Answer: 68.9%

Question: Which “specificity ELISA, fold over background” value does the source give for B4 here?
Answer: 1.1 fold over background

Question: And the “specificity ELISA, percent binding relative to Acro S1” value?
Answer: 76.8%

Question: B11 was tested. Which “specificity ELISA, fold over background” value did it give?
Answer: 11.2 fold over background

Question: What about the “specificity ELISA, percent binding relative to Acro S1” value of the same binder?
Answer: 92.9%

Each binder was assayed against T3, SARS-CoV-2 S1 (subunit 1) protein (SARS-CoV-2, UniProt P0DTC2 16-685) (assay: phage ELISA).
T3 construct: also called biotinylated SARS-CoV-2 S1

Question: For B1, which “screening ELISA (Avg), fold over background” value (“screening ELISA (Avg), fold” for short) is on record?
Answer: 20.2 fold over background

Question: How did the “screening ELISA (Avg), fold” value turn out when B2 was run?
Answer: 27 fold over background

Question: B6 was tested. Which “screening ELISA (Avg), fold” value did it give?
Answer: 27.4 fold over background

Question: How did the “screening ELISA (Avg), fold” value turn out when B7 was run?
Answer: 34.5 fold over background

Question: For B3, which “screening ELISA (Avg), fold” value is on record?
Answer: 23.1 fold over background

Question: With B8 as the binder, how does the “screening ELISA (Avg), fold” value read?
Answer: 47.6 fold over background

Question: Which “screening ELISA (Avg), fold” value does the source give for B9 here?
Answer: 18.5 fold over background

Question: B10 was tested. Which “screening ELISA (Avg), fold” value did it give?
Answer: 22.6 fold over background

Question: For B4, which “screening ELISA (Avg), fold” value is on record?
Answer: 19.5 fold over background

Question: How did the “screening ELISA (Avg), fold” value turn out when B11 was run?
Answer: 19.3 fold over background
